From patent US11161908

Target: human BAFF-R-GFP fusion protein expressed on the surface of mouse fibroblast (L) cells, clone D2C (human) (UniProt Q96RJ3)
Assay: cell ELISA of hybridoma supernatant on (h)BAFF-R-expressing cells, anti-mouse IgG-HRP; same clone on parental L cell: 0.102

B1: mouse monoclonal antibody from hybridoma Clone 55 (antibody, V domains shown)
VH: QVTLKESGPGILKPSQTLSLTCSFSGFSLSTSGMGVGWIRQPSGKGLEWLAHIWWDDDKYYNSSLKSHLTISKDTSRNQVFLKITSVDTADTATYYCARSFGYGLDYWGQGTTLTVSS
VL: DIQMTQTTSSLSASLGDRVTISCSASQDISNYLNWYQQKPDGTVKLLIYYTSSLHSGVPSRFSGSGSGTDYSLTISSLEPEDIATYYCHQFSELPWTFGGGTKLEIK
OD 450 nm: 1.07 OD 450 nm
